Experimental data: a protein production outcome set (Wang et al. 2014)

Assay: label from the status in PepcDB records
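Further: failed if final PepcDB status was selected cloned or expressed and not failed if soluble or beyond.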

Row | Sequence | protein production
1 | MEEQVLGQSHDCETAADKSDQKLQDVTLAKTTHWGKIKAMLEEKIDELSQGLHRVASDNAALTRSLQERSEMIVKISEERSKAEADVEKLKD | failed
2 | MEESDVLISLIEILKIHQKVIDYDKFKDPEDYTPAIRSLATLELMFEYLIKESNTIFENAAVIVYTIVAKHPFFNGNKRTGYEAMNFIIEDGGYGFTSTDEEMIEFIIRVATTENEMSIEEIKEWIIRHTEKILLEHHHHHH | not failed
3 | MEESSAAKIQLLKEFKFEKILKDDTKSKIITLYGKIRNEVALLLLEKTAFDLNTIKLDQLATFLQDTKLVENNDVFHWFLSTNFQDCSTLPSVKSTLIWPASETHVYKYSSQKKPMVCETPLMYLKVTKPFIETQRGPQIQWVENILTHKAEAERIVVEDPDPLNGFIVIPDLKWDRQTMSALNLMAIVHATDIASIRDLKYKHIPLLENIRNKVLTEVPKQFSVDKNQLKMFVHYLPSYYHLHVHILHVDHETGDGSAVGRAILLDDVIDRLRNSPDGLENVNITFNIGEQHFLFQPLTNMNA | not failed
4 | MEFEVEYDILVIVLVAFYILAATRIAHVIGLPPGVVEIIMGAMLAFWGVKSTEVLTLLAAIGANLLLFMAGSEIDLALLRSILPQAVIVALVSALAPLALTALLHVYLGLSLTSSLVILASLSATSVALTYLLLSSYRLVRSRLGQLALASAMLLDLSGMIMLNIATASISPSLAFYIVILLAALLLYPLLPRLGGAPFEAEIRLITMTVIILGFLSDFVGVHSVLTSFILGVIASETVRTRVQLREKLESLATGFFTPFFFIASGMSIDPGIPLHYVALALAGGVALALARTYTVYFYFRLTGSSRRSSLIAASSTAMLLTVTIIAASVGFQLGLLDSLMYSVLVWIVVGTILGSFALVKMR | failed
5 | MEFLFILLPVFGIFAIGFIGQKTLKFDIPNLSKLTLYLMSPFLAFNTFYTNPLTMDYFYLAIYIFVLCLSLILLVSVISFLLGYNVQDRCALILASAFMNNGNYGTPVVLLVFGAAGLDIAVVLMVLQQLAMSTIGIYFAAKGSKDANGMKTVMTRVVRMPIAYGALLGLMLQLLHIPLPSALMTCVKLVGDAAIPTIMIVLGMQLAVISFRRIELDKVGIALVLKLLIAPFIAFGLTLILPVDEMTKQIMILLAAMPTAANTTLMAVQFDTKPDLVSSTTFISTVLSIITLPIVLYFLHPVF | failed
6 | MEFTTQHFIALAPMLITTITTVVVMLAIAWKRNHSQTFLLSTVGLNLALLSLLPALKVAPLAVTSLITIDKFACLYMAIILVATLACVTLAHAYLGEGAKGFPGNREELYLLLLMSALGGLVLVSANHLAGLFIGLELLSVPVYGLVAYAFFNKRSLEAGIKYMVLSAAGSAFLLFGMALLYADAGSLSFDQIGKALATTSMPSLVAQLGLGMMLVGLAFKLSLVPFHLWTPDVYEGAPAPVAAFLATASKVAVFAVVVRLFMLSPAASSGVLSTVLAVIAVASILIGNLLALTQSNLKRLLGYSSIAHFGYLVIALVASKGLALEAMGVYLVTYVITSLGAFGVITLMSSPYGGRDADALYEYRGLFWRRPYLTAVLTVMMLSLAGIPLTAGFIGKFYIIATGVESHLWWLVGALVIGSAIGVYYYLRVMVTLYLVEPNLRRHDAPLKWEQRTGGVMLLAIAILAFVLGVYPQPLLEMVQQAGLQLIG | failed
7 | MEGCVSNIMICNLAYSGKLDELKERILADKSLATRTDQDSRTALHWACSAGHTEIVEFLLQLGVPVNDKDDAGWSPLHIAASAGRDEIVKALLVKGAHVNAVNQNGCTPLHYAASKNRHEIAVMLLEGGANPDAKDHYDATAMHRAAAKGNLKMVHILLFYKASTNIQDTEGNTPLHLACDEERVEEAKFLVTQGASIYIENKEEKTPLQVAKGGLGLILKRLAEGEEASM | not failed
8 | MEGDVYSGFGERYQMDGKLLQNFQKSFVQVQDILDQNRLLINEINQNHESKQADHLGRNVGLIRELNNNIRTVASLYGDLSHSFARSVDASSEGESTGTLKSDGKANNQKRFRSG | failed
9 | MEGFVLAGTSSGVGKTVATLATLTALEDAGYQPQPAKAGPDFIDPSHHEALVDTPSRTLDPWLAGEDGMRRTYWRGTGDICVVEGVMGLYDGTKTSTAAVAEGLDLPVVLVVDAKAGMESVAATALGFAQYADRIGVDIEVAGILAQRAHGGRHADGIRDALPEDLTYFGRIPPMSDLEIPDRHLGLHMGSEAGLDRDALSTAAETIDIERLVETARAPPEVATTERNTGDSPADRRVAVAQDSAFCFIYPSVLERLRSEASVEPFSPVAGDSVPDADAIYLPGGYPELHGESLETGGTLDEIAVRAADGVPVYGECGGLMALSESLTTTDGDTYEMAGVLPADIEMQDRYQALDHVELEARADTVAATSGAHRRGHEFHYSAATLGSDASFAFDMVRGDGIDGEHDGLTEYSTIGTYCHCHGESGAFDRLLAVPSKDILEHHHHHH | failed
10 | MEGGYKLNITKAIVVAIYIIVGAALGVIIIPEVVTDLGIHHHAVITNYYVDGFIGIIIFFIIFGLFINKVTYAFKQFEQLIMRRSAVEILFATIGLIIGLFISVMVSFILEMIGNSILNHFVPMIITIILCYLGFQFGLKKRDEMLMFLPENMARSMSNNIRRATPKIVDTSAIIDGRILDIIRCGFIDGDILIPQGVINELQVIADAKDSVKREKGQRGLDILNQLYDLDYPTRVIHPTQSHSDIDTLLIKLAQQYHAHVITTDFNLNKVCHVQGITALNVNDLSEAIKPNVHQGDQLSILLTKIGKEPGQGVGYLDDGTMVVVDNAKSYIGQQVNLEVVSLLQTSSGRIVFAKFVD | failed
11 | MEGSSSTIARKTWELENSILTVDSPDSTSDNIFYYDDTSQTRFQQEKPWENDPHYFKRVKISALALLKMVVHARSGGTIEIMGLMQGKTDGDTIIVMDAFALPVEGTETRVNAQDDAYEYMVEYSQTNKLAGRLENVVGWYHSHPGYGCWLSGIDVSTQRLNQQHQEPFLAVVIDPTRTVSAGKVEIGAFRTYSKGYKPPDEPVSEYQTIPLNKIEDFGVHCKQYYSLDVTYFKSSLDSHLLDLLWNKYWVNTLSSSPLLGNGDYVAGQISDLAEKLEQAESHLVQSRFGGVVPSSLHKKKEDESQLTKITRDSAKITVEQVHGLMSQVIKDELFNSMRQSNNKSPTDSSDPDPMITY | failed
12 | MEGWDPNTKSTLTRIPLLTTKAGPRDGAAWTQRLKEEYKSLIAYTQMNKSNDNDWFRISASNPEGTRWTGKCWYVHNLLKYEFDLQFDIPITYPATAPELELPEIDGKTQKMYRGGKICLTVHFKPLWAKNCPRFGIAHALCLGLAPWLAAEIPILVDSGAIKHKDDAATSAES | failed
13 | MEHEYQRAVTRVCVQTALLLLQHGAESTVVVQMAQRLGVALGVESVECALTANAVVLTTLSDNHCITTARKNTDKGINMQMVTDVQRIVIAVEHHLYELEIAQRKLDQLKPLKYNRWLVVFMIGLSCAAFAHLSSGDWIICGITIFMLKLLYDMLFAAIPAVGFALVFNVPPKALKYCAILAALGHVTRTLLLHINMPIVFATFFATCVIGFLGVHLSHRYLAHPKAFTVAAIIPMIPGVHAYKAMISMVQIHHFGFSDALFEQMISSFINTSFILGAIVFGLALPGLLFYRQKPVV | failed
14 | MEHGTESFWTDIKRYEDILAKDPGSYCFAPLSELYRKVGLLDDAIMTARTGIGQHPEYVGGYMALGRACFEKGERTESRAALEKVVRVTPDNLLAQKLLSQIYVDAGESDLARRCLEIILSLSPGDLESKLMLDAMCRQPRENADRADDLFNEMGAAAAIDLEDESLLEEIEIIEELVDEVVDEEDLAAFTAHAPPPPLAEESFADVLLDEEPVANADVPSPRDVLSTGTVADLYIAQGFPKKALAIYRDLLDADPLNEDIRNRMVDLKKRIDEDEARARESVLAEAVSATDTTAQIQGDLTADREAFKEEAASGFAVESAHEVDIPLEVAVSAESSLNVAEEKEASAAHVVSALEGWLDSIRRIRQCRSVLH | failed
15 | MEHSGTSEVTGADTAGPDPQLAVTMGFTGFGKKARTFDLEAMFEQTRRTAVERSRKTLEAREKEEEMNREKELRKQIEDMEPAPSSSSAARERSQSSCRDTSSSDSESDDSSDSSDDELIGPPLPPKMVGESVTTVDEGTLGPLPPPLCEEGEDDDDDELDDEGEEDNPVQRIPDSHEITLRHGTKTVSALGLDPSGARLVTGGYDYDVKFWDFAGMDASFKAFRSLQPCECHQIKSLQYSNTGDMILVVSGSSQAKVIDRDGFEVMECIKGDQYIVDMANTKGHTAMLHTGSWHPKIKGEFMTCSNDATVRLWEVENPKKQKSVFKPRTMQGKKVIPTTCTYSRDGNLVAAACQNGSIQIWDRNLTVHPKFHYKQAHDPGTDTSCVAFSYDGNVLASRGGDDTLKLWDVRQFNKPLFSASDLPTLFPMTDCCFSPDDKLIVTGTSVQRGCGSGKLVFLERRTFQRVYEIHITDASVVRCLWHPKLNQIMVGTGNGLAKVYYDPNKSQRGAKLCVVKTQRKAKQAETLTQDYIITPHALPMFREPRQRSTRKQLEKDRLDPLKSHKPEPPVAGPGRGGRVGTHGGTLSSYIVKNIALDKTDDSNPREAILRHAKAAEDNPYWVSPAYSKTQPKTMFAQVESDDEESKNEPEWKKRKI | failed
16 | MEHWNKTFCLEVKGDYACFTRPEMKVERVSYDVITPSAARGIFEAIFWKPAIRWRIRKIEVLNPIKWISVRRNEVGQTASERSDGIFIETARQQRAGLFLRDVAYRLHAELEFVPPSERPDAKRPVPESLQDGRETSELRKDENPGKYYAIFERRARKGQCFNQPYLGCREFSCEFRLVDDLANEPPPISETRNLGFMLYDLDFQKNLKEPPPAFFPACLEKGVIKVPDWESEEVRK | failed
17 | MEIASQEDHDMPIPLNTTFGGGGSHGHMIHHHDHHAANSAPPTHNNNNTTQPPPMPLHGNGHGNNYDHHHHQDPHHVGYNAIIKKPMIKYKECLKNHAAAMGGNATDGCGEFMPSGEDGSIEALTCSACNCHRNFHRKEVEGELAATAMSPYHQHPPHRKLMLNHQKIRSAMPHQMIMPIGVSNYRYMHNNSESEDFMEEDGVTTASRSLPNLPYNQKKRFRTKFTPEQKEKMLSFAEKVGWKIQRQEDCVVQRFCEEIGVKRRVLKVWMHNNKIHFSKKNNINLEDNDNEKINNLNNVDLSGNNDMTKIVP | failed
18 | MEIFGKTFREGRFVLKEKNFTVEFAVEKIHLGWKISGRVKGSPGRLEVLRTKAPEKVLVNNWQSWGPCRVVDAFSFKPPEIDPNWRYTASVVPDVLERNLQSDYFVAEEGKVYGFLSSKIAHPFFAVEDGELVAYLEYFDVEFDDFVPLEPLVVLEDPNTPLLLEKYAELVGMENNARVPKHTPTGWCSWYHYFLDLTWEETLKNLKLAKNFPFEVFQIDDAYEKDIGDWLVTRGDFPSVEEMAKVIAENGFIPGIWTAPFSVSETSDVFNEHPDWVVKENGEPKMAYRNWNKKIYALDLSKDEVLNWLFDLFSSLRKMGYRYFKIDFLFAGAVPGERKKNITPIQAFRKGIETIRKAVGEDSFILGCGSPLLPAVGCVDGMRIGPDTAPFWGEHIEDNGAPAARWALRNAITRYFMHDRFWLNDPDCLILREEKTDLTQKEKELYSYTCGVLDNMIIESDDLSLVRDHGKKVLKETLELLGGRPRVQNIMSEDLRYEIVSSGTLSGNVKIVVDLNSREYHLEKEGKSSLKKRVVKREDGRNFYFYEEGERE | not failed
19 | MEIFKPDYLMIDSMIFFPTLILSFLIKRNYVKLLKSIGIVSPIYLFWDFLATWRNSWTFNPKYVAGIYVIDLPIEEVMFFLVTPFATLLIFDFVMGKVRDKEVKWVPKVVCVAIPLLLLTLPFVYNYSYTFIDLVYLIMSLIVSLLIGRNLLASRNFWIFMGLSYIPFLVFDYFLTSDPVVIYGSHSIVGIRFITIPIEDFIYSFSMITFYTVFYIRGNSLWMKQK | failed
20 | MEIHFEKVTSDNRKAVENLQVFAEQQAFIESMAENLKESDQFPEWESAGIYDGNQLIGYAMYGRWQDGRVWLDRFLIDQRFQGQGYGKAACRLLMLKLIEKYQTNKLYLSVYDTNSSAIRLYQQLGFVFNGELDTNGERVMEWTHQNK | not failed
